# Data taken from the RNAGym collection of RNA variant scans (doi:10.1073/pnas.2313332121).
# B1: TPR t1 (parent)
# chain: GACCAAUCUGCCCUCAGAGCUCGAGAACAUCUUCGGAUGCAGAGGAGGCAGGCUUCGGUGGCGCGAUAGCGCCAACGUCCUCAACCUCCAAUGCAUCCCACCACAUGAUGAUGCCUGAAGAGCCUUGGUUUUUUG
# Variants of: B1
# Assay: polymerase ribozyme fitness, log enrichment relative to wild type (log ratio); higher = more active; in vitro selection for triplet polymerase activity
# In short: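 After PCR construction and transcription, each subunit's mutant library from a heterodimeric triplet polymerase ribozyme was annealed with a biotinylated primer, the partner subunit and triplets. Incubation was frozen, at −7 °C, and extended constructs were gel-excised, bound to streptavidin beads and amplified by RT-PCR, in one selection round done in triplicate. Fitness is the logarithm of a genotype's enrichment divided by that of the wild type, from inverse-variance-weighted replicate averages of Illumina-sequenced inputs and outputs. The base of the logarithm is 2, and genotypes needed ≥10 input reads and ≥1 read per output.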
row,Variant,polymerase ribozyme fitness (log ratio)
1,G36A G45C C49A C73A,-0.979
2,G36U G63A C85A,-3.57
3,A37C C53U,-0.73
4,G36C C53U G61A U112A G113U,-1.83
5,A37C G42A A43U C49U C53G U55C,-4.27
6,G36U U106G,-4.55
7,A37C G42C G122A,-2.78
8,G36U G42U C99A C114A,-7.29
9,G35U G39C G120A U125A,-5.76
10,G36U G44U A75G U112C U131G,-1.21
11,A37C G39C G63A,-4.27
12,G36A G71A U87C C123G,0.907
13,G36U A66G G69U U87G,-2.53
14,A37G A43U G44U C72U U87C C104U U129G,-2.31
15,G36U G61A G93C G120C,-0.0777
16,G36U G44A U59A G60A G77C U112C,0.0936
17,G36U C73U A119U,-1.63
18,G36C C49A C79U C101G,-2.06
19,A37G G48A C56G G71U G117C,-6.21
20,G36C C49U C101G A119U,-3.31
21,A37C C70U C85U C98U G113U U133A,-5.51
22,G36C A37U C82A U116G G120C,-3.26
23,G35U C101A C115U,-6.19
24,G36C C88U C89A,-3.3

row,Variant,polymerase ribozyme fitness (log ratio)
1,A37G C53A C73G A105G U109G U112A,-6.74
2,G36C C64U G113U,-3.55
3,G36A C88U,-0.885
4,G36U C72G C102U A119U,-4.07
5,G36U G42A,-3.47
6,G36U G42C,-2.93
7,G36U U130C,-0.893
8,A37C G107A C123A,-5.8
9,A37C C89U C115G,-3.26
10,G36A C49G G69U A90G C97U G120C,0.538
11,A37C U96G,0.787
12,G36A C73U G127C,-2.76
13,G36C G47U G110C,-5.66
14,G36A C70A C114A,-5.75
15,G35U G45U G61U C97A C123G,-5.69
16,G36A G42A U54G,-3.13
17,G36C G57U A90C U106A,-3.67
18,G36U G44U,-2.24
19,G36A G61A,-0.395
20,G36A A46U G57U C104U,-1.52
21,A37C G120U,0.436
22,G36U A37C C104U,-1.76
23,A37C G120A G122A,-1.07
24,G36U C73G U106A G127C,-2.55

row,Variant,polymerase ribozyme fitness (log ratio)
1,G36A A41C A43U C88A A105C C123G,-5.88
2,A37G C56U A100U C102A U116A,-6.14
3,G35U G63U C104G,-7.12
4,G36A U106A,-0.912
5,G35U G39A C80G C97U C114A,-6.51
6,G36U A68C C70U U87A G117U,-5.69
7,G36A A46U G60C C124U,-0.384
8,G36C U112G G117A,-3.75
9,G36C C98G,-6.86
10,G36U C53U A105C,-2.88
11,G36U C72U,-1.51
12,G35U C64U U78C,-5.42
13,G36A A37G G52C,-4.05
14,G36A G60A C85U C124G,0.468
15,G36U G71A G120U,-1.04
16,G35U U78A C86U G93A G122A C123A,-6.42
17,G36A G110A,-2.64
18,A37C C53G C62A,-1.57
19,A37C G52A A83C U116C,-2.17
20,A37C C73A A118U U125G,-0.0605
21,A37G A68G A111C C124G,-3.95
22,G35U C56U A121G,-4.8
23,G36U G51A G60U U112C C123U,-1.16
24,A37C G45C G71C U130G U131C G135U,-3.26

row,Variant,polymerase ribozyme fitness (log ratio)
1,G36U U78C,-1.61
2,A37G C86A,-1.81
3,G35U G113C G120A G135C,-5.82
4,G36A U78A C82G U125G,-2.73
5,G36U G47U G61A,-4.11
6,G35U C101A G113C,-6.29
7,G35U C40U,-4.76
8,G36U G39C,-1.56
9,G35U C80A,-6.8
10,G36U G61U,-0.625
11,G36U G61C,-2.58
12,G36A G61U U87C C123G,0.936
13,G36C G69U U132C,-0.866
14,G36A G61U A103C A118U,-6.19
15,G36U G71U U87A C104A G113U C115U U130A,-7.12
16,A37C C98U,-1.41
17,G36U U55C A66C,-3.51
18,G36C C94U C97U,-1.57
19,G36U G69A U81A,-3.96
20,G36U G44U U112G,-4.18
21,A37C A46G C49A C72A,-0.663
22,G35U A119U A121C C124A,-4.47
23,G36U C89A,-2.46
24,G36A G93C,-1.47

row,Variant,polymerase ribozyme fitness (log ratio)
1,A37C G48A A68G U96A,-3.13
2,G35U G48C A121C,-3.96
3,A37C C70U,-0.649
4,G35U G61A C85A C114G U131G,-6.32
5,G36A U125G,-1.83
6,G36A C53U U126A U129G U133G,-4.06
7,A37G A100U,-1.32
8,G36C C72A C76A U106A G110A,-5.56
9,G36U G69U U96C C101U U126A,-2.59
10,G35C U59C C124A,-3.15
11,G36A C62A C102A,-5.26
12,G35U A84C,-5.41
13,G36U U125A,-1.4
14,A37C G45C A111G,-2.91
15,G36A A43G A105U U112C,-5.32
16,G36A C97A,-3.86
17,A37C C76A,-1.6
18,G36U A43U,-2.65
19,G35U,-4.66
20,A37C G93U A111G,-2.63
21,A37C G45U G51U C73U,-4.53
22,G35U G120U,-5.06
23,G35U G61U C94U C124U,-4.83
24,G36U C73U,-2.28

row,Variant,polymerase ribozyme fitness (log ratio)
1,G36U G77A G113U,-3.33
2,G36C G42C G47C C53G C56U G61U C72U C86G U116C,-4.72
3,G36A U59G G69A C94U G113A,-4.53
4,G36U G60C A100U,-2.77
5,G36C C94U,-1.47
6,G36A G63A U78C,-1.53
7,G36U C73U C114G C115G A119C G127U,-6.83
8,A37C G58A C72G U78C G113C,-3.84
9,A37C G128C,-3.32
10,G36A G58A C62U U116A,-4.45
11,A37G C64U U78C C86G,-4.56
12,G36A G42U C53U U55G C86U G110U,-6.5
13,G36U C62A C123U G128C,-3.69
14,G36C G51A,-3.99
15,G35U C82U,-7.04
16,G36A A46U A83G,-3.05
17,G36U G77C A91U,-4.63
18,G36A C86A C115A G120U,-2.65
19,A37G C80U,-2.46
20,A37C G42A A43U C104A,-5.34
21,A37G C79G,-1.49
22,G36U G60A,-1.61
23,A37C C49A C104U U125G,-1.1
24,G36A U54A C89G C101G,-5.15

row,Variant,polymerase ribozyme fitness (log ratio)
1,G36C G113C,-2.78
2,G35C U106C G117A,-5.76
3,G35U C79U C114U U131C U134G,-5.19
4,A37C G110C C124A U133A,-3.68
5,G36U G63C C76G G117A,-5.18
6,G36U C80U C85U C98U C102A A103U A105C U106G C115G,-5.37
7,G36C G44U A46C A50G G69U U78A C85A C124U,-4.01
8,G36U G71A,-1.86
9,G35U C72U G117C,-7.07
10,G36C G61C C86U C114U,-6.11
11,G35U G113C,-7.04
12,G36A A37U C86U U112A G120U,-5.12
13,G36U A90G,-0.944
14,G36U C56U,-1.07
15,G36A C72U U116C,-1.78
16,A37G C53A G63U U125A,-3.34
17,G36U G47A C79U,-2.47
18,G36U A105C G135U,-4.66
19,G35U U54C C64G C76G C85U G113U,-7.14
20,G36U C82G U92C,-2.13
21,G36A G117C,-4.58
22,G36A G117U,-4.6
23,G36A G57A C80U U112C C114A A119U G122U,-5.44
